Positions count from the first letter of the chain named.
Columns and labels:
MutS [1] = biological target: T1, MutS (Escherichia coli, UniProt P23909 P23909:1-853); assay: immobilized MutS; conditions: tags: immobilized on nitrocellulose, PVDF, nylon or magnetic beads, label: 5' biotin on first strand
T1 sequence: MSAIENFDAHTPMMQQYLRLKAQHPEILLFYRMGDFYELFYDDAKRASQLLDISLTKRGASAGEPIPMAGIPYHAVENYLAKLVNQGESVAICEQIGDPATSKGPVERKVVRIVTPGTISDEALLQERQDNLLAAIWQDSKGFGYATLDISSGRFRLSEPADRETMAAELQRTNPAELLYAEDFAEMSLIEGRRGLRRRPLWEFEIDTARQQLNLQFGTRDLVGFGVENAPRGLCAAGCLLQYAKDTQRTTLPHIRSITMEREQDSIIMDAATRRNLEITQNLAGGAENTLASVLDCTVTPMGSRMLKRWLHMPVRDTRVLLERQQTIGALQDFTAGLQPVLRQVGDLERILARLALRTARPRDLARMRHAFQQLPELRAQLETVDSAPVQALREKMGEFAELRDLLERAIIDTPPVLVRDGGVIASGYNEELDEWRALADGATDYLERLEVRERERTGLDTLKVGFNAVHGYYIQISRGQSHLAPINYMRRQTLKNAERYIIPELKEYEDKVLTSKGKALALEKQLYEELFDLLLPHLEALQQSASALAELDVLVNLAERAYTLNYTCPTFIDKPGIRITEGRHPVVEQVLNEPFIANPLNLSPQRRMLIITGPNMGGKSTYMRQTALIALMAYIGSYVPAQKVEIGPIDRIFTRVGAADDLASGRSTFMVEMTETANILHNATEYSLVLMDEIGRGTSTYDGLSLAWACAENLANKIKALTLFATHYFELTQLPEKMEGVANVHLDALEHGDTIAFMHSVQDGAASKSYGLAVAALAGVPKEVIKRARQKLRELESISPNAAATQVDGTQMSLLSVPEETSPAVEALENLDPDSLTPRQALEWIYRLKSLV
Description: (§1) Immobilization of MutS on Solid Supports and Biotin Detection Assay (a) Nitrocellulose A nitrocellulose sheet (0.45 μm, Schleicher and Schull, BA85) was pre-wet by floating in reaction buffer (20 mM Tris HCl, pH 7.6; 5 mM MgCl_2, 0.1 mM DTT, 0.01 mM EDTA). MutS (500 ng/well) in reaction buffer was bound to the nitrocellulose in a 48 well slot blotting apparatus (Hoefer Scientific Instruments) over 3 sheets of blotting paper (Schleicher and Schull GB002). Reaction buffer alone was added to "no MutS" wells. After 20 min. at room temperature, nitrocellulose was blocked with 200 μl/well of 3% horse radish peroxidase (HRP)-free bovine serum albumin (BSA). After 1 hour, excess blocking solution was pulled through with vacuum and DNA (1 ng and 10 ng) was added in 20 μl reaction buffer containing 3% BSA. After 30 min. at room temperature, wells were washed 5 times with 100 μl reaction buffer. The wash fluids were decanted rather than pulled through with vacuum.
(§2) The presence of biotin-labeled DNA bound on the nitrocellulose sheet was detected by visualizing the binding of streptavidin to biotin. 100 μl streptavidin-conjugated HRP (0.05 μg/ml in reaction buffer+BSA) was added to each well. After 20 min. at room temperature, any remaining solution was decanted and the wells washed 5 times with 100 μl reaction buffer as above.

MutS [2] = biological target: T1, MutS; assay: immobilized MutS; C//T less well detected than T//C; conditions: tags: immobilized on nitrocellulose, PVDF, nylon or magnetic beads; label: 5' biotin on first strand; C//T mismatch
Description: as §1, §2

MutS [3] = biological target: T1, MutS; assay: immobilized MutS; conditions: tags: immobilized on nitrocellulose, PVDF, nylon or magnetic beads, label: biotin
Description: as §1
DNA was prepared as described in the Examples above. 500 ng *E. coli* MutS was bound to nitrocellulose as described above and the experiment carried out as in the previous Examples. Self-annealed single stranded triplet repeat sequences of CGG and CTG formed double-stranded mismatch-containing DNA duplexes which were recognized by immobilized MutS.

MutS [4] = biological target: T1, MutS; assay: filter; soluble MutS, 1 or 10 ng DNA; 1.8-fold at 0.1 ng; conditions: tags: immobilized on nitrocellulose, PVDF, nylon or magnetic beads; label: 5' biotin on first strand; G//T mismatch
Description: The binding of ^32P-labeled heteroduplexes to MutS in solution was tested in a standard filter binding assay essentially as described by Jiricny, J. et al., Nucl. Acids Res. 16:7843–7853 (1988). The oligonucleotides were labeled as above and annealed with a 10-fold excess of unlabeled "complementary" oligonucleotides to yield a homoduplex and a heteroduplex containing a single G//T mismatch. For this assay, 500 ng of MutS in reaction buffer (20 µl) was incubated for 30 minutes at room temperature with the two types of duplexes. The mixture was spotted onto pre-wet nitrocellulose filters, which were then washed 5 times with 2 ml reaction buffer by vacuum filtration and dried at 80° C. for 15 minutes. Each filter was placed in 3 ml scintillation fluid and the radioactivity determined by scintillation counting. Background cpm (no MutS) were subtracted from the cpm bound by MutS. Means of duplicate or triplicate determinations are shown below.

MutS [5] = biological target: T1, MutS; assay: immobilized MutS, 1-10 ng; detected equally to G//T; conditions: tags: immobilized on nitrocellulose, PVDF, nylon or magnetic beads; label: 5' biotin on first strand; T//G mismatch
Description: as §1, §2

MutS [6] = biological target: T1, MutS; assay: immobilized MutS; strong signal; conditions: tags: immobilized on nitrocellulose, PVDF, nylon or magnetic beads; label: 5' biotin on first strand; G//G mismatch
Description: as §1, §2

[7] = self-annealed duplex with mismatches

B1: G//A mismatch 30mer (dsDNA)
DNA 1: GCACCTGACTCCTGGGGAGAAGTCTGCCGT
DNA 2: ACGGCAGACTTCTCCACAGGAGTCAGGTGC
binding result (MutS [1]; G//A mismatch): binds

B2: C//T mismatch 30mer (dsDNA)
DNA 1: B1 DNA 1 with G15C
DNA 2: B1 DNA 2 with A16T
binding result (MutS [2]): binds

B3: A//A mismatch 30mer (dsDNA)
DNA 1: B1 DNA 1 with G15A
DNA 2: B1 DNA 2
binding result (MutS [1]; A//A mismatch): binds

CGGCGGCGGCGGCGGCGGCGGCGGCGGCGG (structured_DNA) [(CGG)10]
binding result (MutS [3]; [7]): binds

B4: A//C mismatch 30mer (dsDNA)
DNA 1: B1 DNA 1 with G15A
DNA 2: B1 DNA 2 with A16C
binding result (MutS [1]; A//C mismatch): binds

CTGCTGCTGCTGCTGCTGCTGCTGCTGCTG (structured_DNA) [(CTG)10]
binding result (MutS [3]; [7]): binds

CAGCAGCAGCAGCAGCAGCAGCAGCAGCAG (ssDNA) [(CAG)10]
binding result (MutS [3]): no binding

B5: G//T mismatch 30mer (dsDNA)
DNA 1: B1 DNA 1
DNA 2: B1 DNA 2 with A16T
binding signal (MutS [4]): 5.2 fold over G:C homoduplex

B6: T//G mismatch 30mer (dsDNA)
DNA 1: B1 DNA 1 with G15T
DNA 2: B1 DNA 2 with A16G
binding result (MutS [5]): binds

B7: T//T mismatch 30mer (dsDNA)
DNA 1: B1 DNA 1 with G15T
DNA 2: B1 DNA 2 with A16T
binding result (MutS [1]; T//T mismatch): binds

B8: A//G mismatch 30mer (dsDNA)
DNA 1: B1 DNA 1 with G15A
DNA 2: B1 DNA 2 with A16G
binding result (MutS [1]; A//G mismatch): binds

B9: G//G mismatch 30mer (dsDNA)
DNA 1: B1 DNA 1
DNA 2: B1 DNA 2 with A16G
binding result (MutS [6]): binds

CCGCCGCCGCCGCCGCCGCCGCCGCCGCCG (ssDNA) [(CCG)10]
binding result (MutS [3]): no binding

— patent US6120992, “Use of immobilized mismatch binding protein for detection of mutations and polymorphisms, and allele identification in a diseased human” (ValiGene Corporation)
